We go through 21 molecules from publication PMC9712074 (Cell Reports, 2022).

The experiment concerns the target SARS-CoV-2 (WT) Spike RBD Protein (His Tag) (SARS-CoV-2 ancestral (Wuhan-Hu-1), UniProt P0DTC2).

B1: BD55-4495 (antibody, V domains shown)
VH: QGHLVQSGAEVKEPGASVTLSCKASGYTFTNHFMHWVRQAPGQGLEWMARINPSGDSTNLAQKFQGRVSVTRDSSTSTVYMYLSRLRVEDTAVYYCARDRFPSPGNFVWGSPLGGMDVWGQGTTVTVSS
VL: SYDLAQPPSVSVSPGQTATITCSGAALPNQYAYWYQQKSGQAPVLLLYKDSERPSGIPERFSGSNSGTTVTLTISGVQAEDEAVYYCQSADSSTSYHVFGAGTKVTVL
Consider B1, for which the binding result is recorded as “binds”.

B2: BD55-5170 (antibody, V domains shown)
VH: QVQLVESGGGVVQPGRSLRLSCVASGFTFNTYGMHWVRQVPGKGLEWVAVISYDGSNQIYGDSVKGRFTISRDNSKNTVYLQMNGLRAEDTAVYYCATPLHDYSGYDLFDYGYAMDVWGQGTTVTVSS
VL: QSVLTQPPSASGTPGQRVTVSCSGSSSNIGSDYVYWYQQFPGTAPKLLIYRNSQRPSGVPDRFSGSKSGTSASLAISGLRSEDEADYYCAAWDGSISAWVFGGGTKLTVL
In the case of B2, the binding result was “binds”.

B3: BD55-5001 (antibody, V domains shown)
VH: QVQLVQSGSELKKPGASVKVSCKTSGYTFSTYAINWVRQAPGQGLEWMGWINTDTGIPTYAQGFTGRFVLSLDTSVGTAYLQISSLKAEDTAVYYCARADSGSYSWWFDPWGQGTLVTVSS
VL: VIWMTQSPSSLSASIGDRVTISCRLSYGISSELVWYKQKPGKAPELLIYAASILQSGVPSRFSGTGSGTDFTLTISGLQSEDFATYYCQQYYSFPLTFGQGTKVEIK
Consider B3, for which the binding result is “binds”.

B4: BD55-5189 (antibody, V domains shown)
VH: QVQLVQSGAEVKKPGASVKVSCKASGYSFTTFYIHWLRQAPGQGLEWMGIVNVAGDTTDYAQNFQGRVTMTRDTSTGTVYMELSSLRSEDTAIYYCASPREKGYSGYDFWETTFDIWGQGTMVTVS
VL: EVVMTQSPATLSVSPGERATLSCRASQSISSNLAWYQQKPGQAPRLLIYGASTRATGIPARFSGSGSGSQFTLTISSLQSEDFVVYYCQQYNNWPPIFGQGTKLEIK
With B4, the binding result was “binds”.

B5: BD55-5195 (antibody, V domains shown)
VH: QLQLQESGPRLVKPSETLSLTCSVSGGSIRSNSDYWAWIRQSPGQGLEWIGSISHSGSTYYNPSLKSRVSIFVDTSSNQFSLNLTSVTAADTAVYHCARHPSSGWLILWFDPWGQGTLVTVSS
VL: EIVLTQSPGTLSLSPGERATLSCRASQSISSNFLAWYQQKPGQAPRLLIYGASNRATDIPDRFSGSGSGTDFTLTVRRLEPEDFAVYYCHQYDTSPQTFGQGTKVEIK
Consider B5, for which the binding result was “binds”.

B6: BD55-5167 (antibody, V domains shown)
VH: QITLKESGPTLVKPTQTLTLTCTFSGFSLTTTGMGVGWIRQPPGKAPEWLALIYWLDDTRYSPSLESRLTLTKDTSKNLVVLTMTNMDPVDTATYYCAHLYYDSSSGYDTTGPDAFDFWGQGTMVTVSP
VL: AIQITQSPSSLSASPGDRVTITCRASQGISSFLAWYQQRRGRAPKLLIHSASTLQNGVPSRISGSGSGTDFTLTITGLQSEDFATYYCQQYYSYPPTFGHGTKVEF
In the case of B6, the binding result was “binds”.

B7: BD55-5183 (antibody, V domains shown)
VH: QVQLVQSGGEVKKPGSSVKVSCRASGGTFSGYTISWVRRAPGQGLEWMGGIIPMYGAANYAQKFQGRVTISAETSTGTAYMELSGLTSDDTAMYYCARDLGGEDITVAGKAPDYWGQGTLVTVSS
VL: DIQMTQSPSSLSASVGDRVTVTCRASQSISKYLNWYQERPGKAPKLLIYTASSLPSEVPSRFSGSGFGTDFTLTISGLQPEDFATYYCQQSYSLPYTFGQGTKLEIK
Turning to B7, the binding result is “binds”.

B8: BD55-5171 (antibody, V domains shown)
VH: QVQLVQSGSGLKKPGASVKVSCRTSGYSFTDHTINWVRQAPGQGLEWMGWINTATGIPTYAQGFTGRFVFSLDTSVGTAFLLISSLQAADTAVYYCARAASWDYCGNNNCFGDYWGQGTLVTVSS
VL: ENVLTQSPGTLSLSVGERVTLSCRASHSVGSSFLAWYQQKPGQAPRLLIYGASNRATGIPDRISGRGSGTDFSLTISRLEPEDFAVYYCHQYGSSPFTFGQGTKVEIK
With B8, the binding result is on record as “binds”.

B9: BD55-4892 (antibody, V domains shown)
VH: QVQLVESGGGVVQPGGSLRLSCAASGFTFSTYGMHWVRQAPGKGLEWVAVISYDGNNKYHADSVKGRFTISRDNSKNTLYLEMKSLRAEDTAVYYCAKEVNYGSGSFENEGRLDYWGQGTLVTVSS
VL: DIQMTQSPSSLSASVGDRVTITCRTSQSINRYLNWYQQKPGKAPKLLIYATSTLQSGVPSRFSGSGSGTDFILTISNLQPEDFAAYYCQQTYSIPWTFGQGTKVEIK
For B9, the binding result was “binds”.

B10: BD55-5163 (antibody, V domains shown)
VH: QVQLVQSGAEVKKPGASLKVSCKASGYTFTYFGVSWVRQAPGQGLEWVGWISTYHGDTNYAQKLQGRVTLTTDTSTSTVYMELRNLRSDDTAIYYCAREGGSGWGDFWGQGTLVTVSS
VL: EIVLTQSPATLSLSPGERATLSCRANQSISNYLAWYQQRPGQAPRLLIFDASNRATGIPARFTGSGSETDFTLTISSLEPEDFAVYYCQQRSNWPPAFGQGTRLDIK
For B10, the binding result is on record as “binds”.

B11: BD55-5175 (antibody, V domains shown)
VH: QVQLVQSGPELKRPGASVKVSCETSGYTFTDYAINWVRQAPGQGLEWMGWINTNTGHPTYAQGFTGRFVFSVDMSDSTAYLQISSLKPADTAVYYCARDFQVPEGLDYWGQGTLVTVSS
VL: DIVMTQSPATLSLSPGETATLSCRASYSFTSRLAWYQQKPGQAPRLLIHDASNRAPGVPARFSGSGSGTEFTLAISGLQSEDSAVYYCQQYHSWPLTFGQGTKVEIK
In the case of B11, the binding result is “binds”.

B12: BD55-5164 (antibody, V domains shown)
VH: QLQLQESGPGLVKPSETLSLTCIVSRGSISSSSYFWAWVRQAPGKGLEWIGTIDYTGNTHYNTSLKSRVTISVDTSKNQFSLRLRSVTAADTALYFCSRQSAPPWGSSWGDYWGRGTLVTVSS
VL: DIQMTQSPSSLSASVGDRVTISCQASQDISNYLNWYHQTPGKAPILLIFDASNLEAGVPSRFSGSGSGRHFSFTISSLQPEDTGTYYCQQYANLPALTFGGGTKVDIK
B12: the binding result was “binds”.

B13: BD55-5168 (antibody, V domains shown)
VH: QVQLVQSGSEVKKPGSSVKVSCKASGGSFRSHAISWVRQAPGQGLEWMGCVIPTFDTANYAQNFRGRVTLTADESTSTAYMELTSLTSDDTAVYYCARLFPNGTPDSPTGPLDYWGQGTLVTVSS
VL: DIQMTQSPSSLSASVGDRVTITCQASQGIGNYLNWYQQKPGKAPKLLIYGASNLHTGVPSRFSGRGSGTHFTFTINSLQPEDVATYYCQQYDYVPMYTFGQGTKLEIK
As for B13, the binding result is “binds”.

B14: BD55-4760 (antibody, V domains shown)
VH: EVQLVEAGGDLVQPGRSLRLSCAASGFNFDDCAMHWVRQAPGKGLEWVSGINWSSGDIDYADSVKGRFTISRDNAKNSLYLQMNSLRPEDTAFYYCAKDPWGELSSIDFWGQGTLVTVSS
VL: QLVLTQSPSASASLGASVKLTCTLSRGHSSYAIAWHQQQPEKGPRYLMRVNSDGSHIKGDGIPDRFSGSSSGAERYLTISSLQSEDEADYYCQTWSIGIRVFGGGTKLTVL
Consider B14, for which the binding result is “binds”.

B15: BD55-5198 (antibody, V domains shown)
VH: EVQLVESGGGVVKPGGSLRLSCAASGFTFSAFAMHWVRQVPGKGLEYISLISEDGYSTFYAASVTGRFTLSRDNNKKSLYLQMNSLRSEDTAFYYCAKDIGGTVAGTGADFWGQGILVTVSS
VL: QSVLTQPPSVSGAPGQKVTISCTGDSSNIGAGYTVHWYQQLPGTAPKLLIYGDNNRPSGVPDRFSGSKSGTSASLAITGLQAEDEADYYCQSYDTSLSGLWVFGGGTRLTVL
Take B15: the binding result is given as “binds”.

B16: BD55-5196 (antibody, V domains shown)
VH: QVHLVQSGAEVRKPGASVKVSCKASGYTFTSYFMYWVRQAPGHGLEWMGMIDPISGSTNYAQRFQGRVTMTRDTSTSTVNMELTSLRSEDTAVYYCARDGGIRFGDLSPDNWFDPWGRGTLVTVSS
VL: QSVLTQPPSVSGAPGQRVTISCTGSSSNLGAGYDVHWYQQLPGTAPKLLIYGNNNRPSGVPDRFSGSRSGTSASLAITGLLAEDEADYYCQSYDSSSLSGSKVFGTGTTVTVL
For B16, the binding result is recorded as “binds”.

B17: BD55-5182 (antibody, V domains shown)
VH: EVQLVESGGGLVKPGGSLRLSCAASGFTLSNAWMTWVRQAPGKGLEWIARIKGKVDGATRDYAAPVKGRFTISTDDSKTTLFLQMNTLKTEDTAVYFCTALFTSYDMLTGRAGGRGYWGQGTLVTVSS
VL: NVMLTQPHSVSESPGKTVTISCTRSSGSIASNYVQWYQQRPGSAPTTVIYEDNQRPSGVPDRFSGSIDSSSNSASLTISGLETEDEADYYCQSFDSSNHMNWVFGGGTKLTVL
Regarding B17, the binding result is recorded as “binds”.

B18: BD55-5200 (antibody, V domains shown)
VH: QVQLQESDPGLVKPSQTLSLTCTVSGGSISGGSNFWNWIRQPAGKGLEWIGRIYTSGNTDYNPSLKSRVTISVDTSKNQFSLRLSSVTAADTAVYYCARDRLSGKVEVAINHFSYGLDVWGPGTTVTVSS
VL: SHELTQPPSVSVSPGQTARITCSGDALPKQYAYWYQQKSGQAPVLVIYKDSERPSGIPERFSGSSSGRTVTLTISGVQAEDEADYYCQSADSSNIYLAFGGGTKVTVL
Turning to B18, the binding result is recorded as “binds”.

B19: BD55-4662 (antibody, V domains shown)
VH: QVQLQESGPGLVKPSETLSLTCTVSGASISSYYWTWIRQPPGKGLEWIGYIYNSGSTDYSPRGSTNYSPSLESRVTISVDTSKNQFSLKLSSVTAADTAVYHCARHPWTEMATYRSAYYFDSWGQGTLVTVSS
VL: QSALTQPASVSGSPGQSITISCTGTTSDVGAYNHVSWYQQHPGKAPNLMIYDVSERPSGVSDRFSASKSGNTASLTISGLQAEDEADYYCCSYAGRSTWMFGGGTKLTVL
B19: the binding result is listed as “binds”.

B20: BD55-4664 (antibody, V domains shown)
VH: QVQLQQWGAGLLRPSETLSLTCAVSGGSFSGYYWSWIRQPPGKGLEWIGEINHTGGTNYNPSLKSRVTVSIDMSRNQFSVKLNSLTAADTAVYFCAREAPDYFDSSGYRFDYWGQGALVTISS
VL: QSALTQPASVSGSPGQSITISCTGTSNDVGGYNYVSWYQQHPGKAPKLIIYDVTSRPSGISNRFSGSKSGNTASLTISGLQAEDEADYYCCSYTRSFTRVFGGGTKLTVL
Regarding B20, the binding result was “binds”.

B21: BD55-5201 (antibody, V domains shown)
VH: QVQVVQSGAEVKKPGSSVKVSCEASGGTFSSDTIHWVRQAPGQGLEWMGRIIPIPGIVNYAQKFQGRVTITADKSTSIAYMELSSLRSEDTAVYYCASAPPRGYSGYDLLGNDPLDIWGQGTMVTVSS
VL: QSVLTQPPSVSGAPGQRVTISCTGSSSNIGAGYDVHWYQQLPGTAPKFFISVNNNRPSGVPDRFSGSKSGTSASLAITGLQAEDEAVYYCQSFDSSLSGSYVFGTGTKVTVL
As to B21, the binding result is recorded as “binds”.
